We go through one substance from patent US20080108793.

The subject of this data set is crotonyl-ACP.

With “N-terminal His-tagged F. tularensis FabI”, the Km (crotonyl-ACP) turned out to be 4.4 µM.
